Measured values reported in article PMC5473857.

Target: FtsZ-F268C labeled with fluorescein 5-maleimide (donor) or tetramethylrhodamine 5-maleimide (acceptor) (E. coli) (UniProt P0A9A6)

- FRET assay of subunit exchange of FtsZ protofilaments at steady state with FtsA*, pH 6.5: reaction time τ (13.1 s for FtsZ alone): 38 s
B1: FtsA-R286W (FtsA*) from E. coli (natural protein)
chain: MIKATDRKLVVGLEIGTAKVAALVGEVLPDGMVNIIGVGSCPSRGMDKGGVNDLESVVKCVQRAIDQAELMADCQISSVYLALSGKHISCQNEIGMVPISEEEVTQEDVENVVHTAKSVRVRDEHRVLHVIPQEYAIDYQEGIKNPVGLSGVRMQAKVHLITCHNDMAKNIVKAVERCGLKVDQLIFAGLASSYSVLTEDERELGVCVVDIGGGTMDIAVYTGGALRHTKVIPYAGNVVTSDIAYAFGTPPSDAEAIKVRHGCALGSIVGKDESVEVPSVGGRPPWSLQRQTLAEVIEPRYTELLNLVNEEILQLQEKLRQQGVKHHLAAGIVLTGGAAQIEGLAACAQRVFHTQVRIGAPLNITGLTDYAQEPYYSTAVGLLHYGKESHLNGEAEVEKRVTASVGSWIKRLNSWLRKEF
